Test results taken from US20120295975A1 (University of California, published 2012).
Blank lines part the entries; values can stand above or below the binder they belong to.

How the values were obtained:
[1] = target: T1, β-arrestin2 (endogenous, RAW 264.7 cells) (mouse, UniProt Q91YI4 1-410); test: co-IP, RAW 264.7 cells, DHA 30 min (FIG. 3E)
T1 construct: Endogenous protein in cell lysate; also called βarr2
Method: (§1) FIG. 3. GPR120 internalization with β-arrestin2 mediates anti-inflammatory effects. (A) RAW 264.7 cells were transfected with siRNA as indicated and stimulated with or without 100 μM of DHA 1 hr prior to LPS (100 ng/ml) treatment for 10 min and then subjected to western blotting. […] (C) Phosphorylation of TAK1 and MKK4 in RAW 264.7 cells with or without siRNA transfection as indicated. (D) HEK 293 cells were co-transfected with HA-GPR120 and β-arrestin2.GFP to analyze GPR120 internalization after DHA stimulation for the indicated times. GPR120 (left column) and β-arrestin2 (middle column) were localized by confocal microscopy. (E) Co-immunoprecipitation between GPR120 and β-arrestin2 with DHA stimulation for 30 min in RAW 264.7 cells and, (F) HEK 293 cells (HA-GPR120 and (β-arrestin2*GFP), respectively. Lysate indicates 1/10 input in each experiment. Interaction between TAB1 and β-arrestin2 (G), and interaction between TAB1 and TAK1 (H) were detected by co-immunoprecipitation and the scanned bar graph quantitates the association in RAW 264.7 cells. (I) Schematic diagram of the β-arrestin2 and GPR120-mediated anti-inflammatory mechanism. The left half of the diagram indicate the DHA-mediated anti-inflammatory effect, and the right half of the diagram indicate the LPS- and TNF-α-induced inflammatory pathway. See also FIG. 9. […]

[2] = target: T2, transforming growth factor-β activated kinase 1 (TAK1), endogenous, RAW 264.7 cells (mouse, UniProt Q62073 1-579); test: co-IP, RAW 264.7 cells (FIG. 3H)
T2 construct: Endogenous protein in cell lysate
T2 sequence (looked up): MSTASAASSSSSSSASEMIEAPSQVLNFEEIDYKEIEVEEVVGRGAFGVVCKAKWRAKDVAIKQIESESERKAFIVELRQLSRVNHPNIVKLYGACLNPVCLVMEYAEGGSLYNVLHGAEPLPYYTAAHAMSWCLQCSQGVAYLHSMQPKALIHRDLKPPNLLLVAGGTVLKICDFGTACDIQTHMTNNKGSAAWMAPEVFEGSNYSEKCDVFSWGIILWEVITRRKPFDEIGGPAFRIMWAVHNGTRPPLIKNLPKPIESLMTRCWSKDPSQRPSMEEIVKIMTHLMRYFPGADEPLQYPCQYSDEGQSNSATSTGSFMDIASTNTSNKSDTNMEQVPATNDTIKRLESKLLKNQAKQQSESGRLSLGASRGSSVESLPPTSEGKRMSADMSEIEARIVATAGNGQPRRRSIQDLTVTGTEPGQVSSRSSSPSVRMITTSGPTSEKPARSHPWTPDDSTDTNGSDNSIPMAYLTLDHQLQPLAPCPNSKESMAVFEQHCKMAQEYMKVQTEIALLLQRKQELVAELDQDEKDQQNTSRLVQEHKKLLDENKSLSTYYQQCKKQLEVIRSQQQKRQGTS
Method: as §1

T1 sequence (Q91YI4 whole entry): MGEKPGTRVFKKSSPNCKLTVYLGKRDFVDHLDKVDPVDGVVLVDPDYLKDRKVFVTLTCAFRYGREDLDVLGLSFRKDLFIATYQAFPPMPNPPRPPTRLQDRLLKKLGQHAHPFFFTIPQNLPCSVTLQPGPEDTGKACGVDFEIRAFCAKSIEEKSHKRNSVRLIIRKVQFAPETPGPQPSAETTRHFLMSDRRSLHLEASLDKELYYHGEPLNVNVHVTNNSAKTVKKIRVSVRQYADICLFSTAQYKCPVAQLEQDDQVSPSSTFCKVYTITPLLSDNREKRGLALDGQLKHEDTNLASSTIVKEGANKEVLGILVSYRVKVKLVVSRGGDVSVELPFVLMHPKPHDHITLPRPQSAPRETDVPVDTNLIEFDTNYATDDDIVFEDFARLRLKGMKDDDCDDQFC

binding result [1]: binds
B1: GPR120 (endogenous, RAW 264.7 cells) (receptor, mouse, UniProt Q7TMA4 1-361, looked up)
chain: MSPECAQTTGPGPSHTLDQVNRTHFPFFSDVKGDHRLVLSVVETTVLGLIFVVSLLGNVCALVLVARRRRRGATASLVLNLFCADLLFTSAIPLVLVVRWTEAWLLGPVVCHLLFYVMTMSGSVTILTLAAVSLERMVCIVRLRRGLSGPGRRTQAALLAFIWGYSALAALPLCILFRVVPQRLPGGDQEIPICTLDWPNRIGEISWDVFFVTLNFLVPGLVIVISYSKILQITKASRKRLTLSLAYSESHQIRVSQQDYRLFRTLFLLMVSFFIMWSPIIITILLILIQNFRQDLVIWPSLFFWVVAFTFANSALNPILYNMSLFRNEWRKIFCCFFFPEKGAIFTDTSVRRNDLSVISS
notes: whole, on cells; also called ω-3 FA receptor/sensor

binding result [2]: binds
B2: TAK1 binding protein 1 (TAB1), endogenous, RAW 264.7 cells (other, mouse, UniProt Q8CF89 1-502, looked up)
chain: MAAQRRSLLQSEQQPSWTDDLPLCHLSGVGSASNRSYSADGKGTESHPPEDNWLKFRSENNCFLYGVFNGYDGNRVTNFVAQRLSAELLLGQLNTEHTEADVRRVLLQAFDVVERSFLESIDDALAEKASLQSQLPEGVPQHQLPPQYQKILERLKALEREISGGAMAVVAVLLNSKLYVANVGTNRALLCKSTVDGLQVTQLNMDHTTENEDELFRLSQLGLDAGKIKQMGVICGQESTRRIGDYKVKYGYTDIDLLSAAKSKPIIAEPEIHGAQPLDGVTGFLVLMSEGLYKALEAAHGPGQANQEIAAMIDTEFAKQTSLDAVAQAVVDRVKRIHSDTFASGGERAKFCPRHEDMTLLVRNFGYPLGEMSQPTPTPAPGGRVYPVSVPYSSAQSTSKTSVTLSLVMPSQGQMVNGSHSASTLDEATPTLTNQSPTLTLQSTNTHTQSSSSSSDGGLFRSRPAHSLPPGEDGRVEPYVDFAEFYRLWSVDHGEQSVMTAP
notes: Endogenous protein in cell lysate
